US20160272683A1 (Novo Nordisk, published 2016)
Numbered stars: 1 amine (or outer) side, 2 acyl side, 3 side chain; on linkers, the order of the positions; unused ones are H or OH. Side chains are listed from the residue outwards. Ends that are not written are not given here. * marks the point of attachment. C20 diacid = O=C(O)CCCCCCCCCCCCCCCCCCC(=O)*; C18 diacid = O=C(O)CCCCCCCCCCCCCCCCC(=O)*; C16 diacid = O=C(O)CCCCCCCCCCCCCCC(=O)*; γGlu = O=C(O)[C@H](CCC(=O)[*:2])N[*:1]; C14 diacid = O=C(O)CCCCCCCCCCCCC(=O)*; AEEA = NCCOCCOCC(=O)O

B1: [N-terminal(C18 diacid-gGlu), des1, 30S, 31P]mimylin (peptide)
peptide: {C18 diacid-γGlu}-ASELSTAALGRLSAELHELATLPRTETGSPSP-NH2
SMILES: CC(C)C[C@H](NC(=O)[C@H](C)NC(=O)[C@H](C)NC(=O)[C@@H](NC(=O)[C@H](CO)NC(=O)[C@H](CC(C)C)NC(=O)[C@H](CCC(=O)O)NC(=O)[C@H](CO)NC(=O)[C@H](C)NC(=O)CC[C@H](NC(=O)CCCCCCCCCCCCCCCCC(=O)O)C(=O)O)[C@@H](C)O)C(=O)NCC(=O)N[C@@H](CCCNC(=N)N)C(=O)N[C@@H](CC(C)C)C(=O)N[C@@H](CO)C(=O)N[C@@H](C)C(=O)N[C@@H](CCC(=O)O)C(=O)N[C@@H](CC(C)C)C(=O)N[C@@H](Cc1c[nH]cn1)C(=O)N[C@@H](CCC(=O)O)C(=O)N[C@@H](CC(C)C)C(=O)N[C@@H](C)C(=O)N[C@H](C(=O)N[C@@H](CC(C)C)C(=O)N1CCC[C@H]1C(=O)N[C@@H](CCCNC(=N)N)C(=O)N[C@H](C(=O)N[C@@H](CCC(=O)O)C(=O)N[C@H](C(=O)NCC(=O)N[C@@H](CO)C(=O)N1CCC[C@H]1C(=O)N[C@@H](CO)C(=O)N1CCC[C@H]1C(N)=O)[C@@H](C)O)[C@@H](C)O)[C@@H](C)O
B2: [des1, 16K(C20 diacid-gGlu), 30S, 31G]mimylin (peptide)
peptide: ASELSTAALGRLSAK([γGlu-C20 diacid])LHELATLPRTETGSGSP-NH2
modifications: N-terminus assumed
SMILES: CC(C)C[C@H](NC(=O)[C@H](C)NC(=O)[C@H](C)NC(=O)[C@@H](NC(=O)[C@H](CO)NC(=O)[C@H](CC(C)C)NC(=O)[C@H](CCC(=O)O)NC(=O)[C@H](CO)NC(=O)[C@H](C)N)[C@@H](C)O)C(=O)NCC(=O)N[C@@H](CCCNC(=N)N)C(=O)N[C@@H](CC(C)C)C(=O)N[C@@H](CO)C(=O)N[C@@H](C)C(=O)N[C@@H](CCCCNC(=O)CC[C@H](NC(=O)CCCCCCCCCCCCCCCCCCC(=O)O)C(=O)O)C(=O)N[C@@H](CC(C)C)C(=O)N[C@@H](Cc1c[nH]cn1)C(=O)N[C@@H](CCC(=O)O)C(=O)N[C@@H](CC(C)C)C(=O)N[C@@H](C)C(=O)N[C@H](C(=O)N[C@@H](CC(C)C)C(=O)N1CCC[C@H]1C(=O)N[C@@H](CCCNC(=N)N)C(=O)N[C@H](C(=O)N[C@@H](CCC(=O)O)C(=O)N[C@H](C(=O)NCC(=O)N[C@@H](CO)C(=O)NCC(=O)N[C@@H](CO)C(=O)N1CCC[C@H]1C(N)=O)[C@@H](C)O)[C@@H](C)O)[C@@H](C)O
B3: [des1, 4K(C20 diacid-gGlu), 30S, 31G]mimylin (peptide)
peptide: ASK([γGlu-C20 diacid])LSTAALGRLSAELHELATLPRTETGSGSP-NH2
modifications: N-terminus assumed
SMILES: CC(C)C[C@H](NC(=O)[C@H](C)NC(=O)[C@H](C)NC(=O)[C@@H](NC(=O)[C@H](CO)NC(=O)[C@H](CC(C)C)NC(=O)[C@H](CCCCNC(=O)CC[C@H](NC(=O)CCCCCCCCCCCCCCCCCCC(=O)O)C(=O)O)NC(=O)[C@H](CO)NC(=O)[C@H](C)N)[C@@H](C)O)C(=O)NCC(=O)N[C@@H](CCCNC(=N)N)C(=O)N[C@@H](CC(C)C)C(=O)N[C@@H](CO)C(=O)N[C@@H](C)C(=O)N[C@@H](CCC(=O)O)C(=O)N[C@@H](CC(C)C)C(=O)N[C@@H](Cc1c[nH]cn1)C(=O)N[C@@H](CCC(=O)O)C(=O)N[C@@H](CC(C)C)C(=O)N[C@@H](C)C(=O)N[C@H](C(=O)N[C@@H](CC(C)C)C(=O)N1CCC[C@H]1C(=O)N[C@@H](CCCNC(=N)N)C(=O)N[C@H](C(=O)N[C@@H](CCC(=O)O)C(=O)N[C@H](C(=O)NCC(=O)N[C@@H](CO)C(=O)NCC(=O)N[C@@H](CO)C(=O)N1CCC[C@H]1C(N)=O)[C@@H](C)O)[C@@H](C)O)[C@@H](C)O
B4: [N-terminal(C20 diacid-gGlu), 23Y, 30S, 31G]mimylin (peptide)
peptide: {C20 diacid-γGlu}-EASELSTAALGRLSAELHELATYPRTETGSGSP-NH2
SMILES: CC(C)C[C@H](NC(=O)[C@H](C)NC(=O)[C@H](C)NC(=O)[C@@H](NC(=O)[C@H](CO)NC(=O)[C@H](CC(C)C)NC(=O)[C@H](CCC(=O)O)NC(=O)[C@H](CO)NC(=O)[C@H](C)NC(=O)[C@H](CCC(=O)O)NC(=O)CC[C@H](NC(=O)CCCCCCCCCCCCCCCCCCC(=O)O)C(=O)O)[C@@H](C)O)C(=O)NCC(=O)N[C@@H](CCCNC(=N)N)C(=O)N[C@@H](CC(C)C)C(=O)N[C@@H](CO)C(=O)N[C@@H](C)C(=O)N[C@@H](CCC(=O)O)C(=O)N[C@@H](CC(C)C)C(=O)N[C@@H](Cc1c[nH]cn1)C(=O)N[C@@H](CCC(=O)O)C(=O)N[C@@H](CC(C)C)C(=O)N[C@@H](C)C(=O)N[C@H](C(=O)N[C@@H](Cc1ccc(O)cc1)C(=O)N1CCC[C@H]1C(=O)N[C@@H](CCCNC(=N)N)C(=O)N[C@H](C(=O)N[C@@H](CCC(=O)O)C(=O)N[C@H](C(=O)NCC(=O)N[C@@H](CO)C(=O)NCC(=O)N[C@@H](CO)C(=O)N1CCC[C@H]1C(N)=O)[C@@H](C)O)[C@@H](C)O)[C@@H](C)O

target: T1, human amylin 3(a) receptor (human calcitonin receptor co-expressed with RAMP-3) on BHK570/CRE-luc cells (human, UniProt P30988 25-474; O60896 24-148); assay: cell-based or functional assay
T1 sequence (looked up) 1: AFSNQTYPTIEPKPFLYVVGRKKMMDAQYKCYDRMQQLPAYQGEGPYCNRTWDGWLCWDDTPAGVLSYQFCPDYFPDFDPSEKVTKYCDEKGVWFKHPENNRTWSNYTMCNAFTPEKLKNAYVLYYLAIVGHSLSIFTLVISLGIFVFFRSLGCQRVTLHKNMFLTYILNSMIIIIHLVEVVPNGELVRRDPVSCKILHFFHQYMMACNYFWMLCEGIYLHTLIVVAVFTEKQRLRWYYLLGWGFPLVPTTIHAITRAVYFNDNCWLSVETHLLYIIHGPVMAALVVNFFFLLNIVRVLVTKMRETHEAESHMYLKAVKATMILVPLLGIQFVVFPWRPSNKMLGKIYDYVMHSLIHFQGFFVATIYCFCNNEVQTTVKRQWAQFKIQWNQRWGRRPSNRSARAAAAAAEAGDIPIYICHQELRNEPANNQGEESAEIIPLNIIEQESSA
T1 sequence (looked up) 2: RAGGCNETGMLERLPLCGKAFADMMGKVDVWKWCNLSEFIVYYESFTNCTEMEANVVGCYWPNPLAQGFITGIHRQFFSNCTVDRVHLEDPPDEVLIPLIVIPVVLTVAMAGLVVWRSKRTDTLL

Binder	hAmylin-R funct. EC50 (pM), tested with HSA
{C20 diacid-γGlu-AEEA-AEEA-AEEA}-ASELSTAALGRLSAELHELATLPRTETGSGSP-NH2 [[N-terminal(C20 diacid-gGlu-3xOEG), des1, 30S, 31G]mimylin]	68 pM
{C14 diacid}-ASELSTAALGRLSAELHELATLPRTETGSGSP-NH2 [[N-terminal(C14 diacid), des1, 30S, 31G]mimylin]	6 pM
{C20 diacid-γGlu-AEEA}-ASELSTAALGRLSAELHELATLPRTETGSGSP-NH2 [[N-terminal(C20 diacid-gGlu-OEG), des1, 30S, 31G]mimylin]	73 pM
{C14 diacid-γGlu}-ASELSTAALGRLSAELHELATLPRTETGSGSP-NH2 [[N-terminal(C14 diacid-gGlu), des1, 30S, 31G]mimylin]	4 pM
B1	39 pM
B2	57 pM
B3	74 pM
B4	143 pM
{C20 diacid-γGlu-AEEA-AEEA-AEEA-AEEA}-ASELSTAALGRLSAELHELATLPRTETGSGSP-NH2 [[N-terminal(C20 diacid-gGlu-4xOEG), des1, 30S, 31G]mimylin]	62 pM
{C16 diacid-γGlu}-ASELSTAALGRLSAELHELATLPRTETGSGSP-NH2 [[N-terminal(C16 diacid-gGlu), des1, 30S, 31G]mimylin]	4 pM
{C20 diacid-γGlu-AEEA-AEEA-AEEA-AEEA-AEEA}-ASELSTAALGRLSAELHELATLPRTETGSGSP-NH2 [[N-terminal(C20 diacid-gGlu-5xOEG), des1, 30S, 31G]mimylin]	66 pM
{C20 diacid-γGlu}-ASELSTAALGRLSAELHELATLPRTETGSGSP-NH2 [[N-terminal(C20 diacid-gGlu), des1, 30S, 31G]mimylin]	51 pM
{C16 diacid}-ASELSTAALGRLSAELHELATLPRTETGSGSP-NH2 [[N-terminal(C16 diacid), des1, 30S, 31G]mimylin]	4 pM
{C20 diacid-γGlu-AEEA-AEEA}-ASELSTAALGRLSAELHELATLPRTETGSGSP-NH2 [[N-terminal(C20 diacid-gGlu-2xOEG), des1, 30S, 31G]mimylin]	67 pM
{C18 diacid}-ASELSTAALGRLSAELHELATLPRTETGSGSP-NH2 [[N-terminal(C18 diacid), des1, 30S, 31G]mimylin]	9 pM
{C18 diacid-γGlu}-ASELSTAALGRLSAELHELATLPRTETGSGSP-NH2 [[N-terminal(C18 diacid-gGlu), des1, 30S, 31G]mimylin]	26 pM

target: T2, human calcitonin receptor on BHK570/CRE-luc cells (human, UniProt P30988 25-474); assay: cell-based or functional assay
T2 sequence (looked up): T1 sequence (looked up) 1

Binder	hCTR funct. EC50 (pM), tested with HSA
{C20 diacid-γGlu-AEEA-AEEA-AEEA}-ASELSTAALGRLSAELHELATLPRTETGSGSP-NH2 [[N-terminal(C20 diacid-gGlu-3xOEG), des1, 30S, 31G]mimylin]	25 pM
{C14 diacid}-ASELSTAALGRLSAELHELATLPRTETGSGSP-NH2 [[N-terminal(C14 diacid), des1, 30S, 31G]mimylin]	4 pM
{C20 diacid-γGlu-AEEA}-ASELSTAALGRLSAELHELATLPRTETGSGSP-NH2 [[N-terminal(C20 diacid-gGlu-OEG), des1, 30S, 31G]mimylin]	30 pM
{C14 diacid-γGlu}-ASELSTAALGRLSAELHELATLPRTETGSGSP-NH2 [[N-terminal(C14 diacid-gGlu), des1, 30S, 31G]mimylin]	4 pM
B1	19 pM
B2	48 pM
B3	30 pM
B4	74 pM
{C20 diacid-γGlu-AEEA-AEEA-AEEA-AEEA}-ASELSTAALGRLSAELHELATLPRTETGSGSP-NH2 [[N-terminal(C20 diacid-gGlu-4xOEG), des1, 30S, 31G]mimylin]	25 pM
{C16 diacid-γGlu}-ASELSTAALGRLSAELHELATLPRTETGSGSP-NH2 [[N-terminal(C16 diacid-gGlu), des1, 30S, 31G]mimylin]	2 pM
{C20 diacid-γGlu-AEEA-AEEA-AEEA-AEEA-AEEA}-ASELSTAALGRLSAELHELATLPRTETGSGSP-NH2 [[N-terminal(C20 diacid-gGlu-5xOEG), des1, 30S, 31G]mimylin]	27 pM
{C20 diacid-γGlu}-ASELSTAALGRLSAELHELATLPRTETGSGSP-NH2 [[N-terminal(C20 diacid-gGlu), des1, 30S, 31G]mimylin]	29 pM
{C16 diacid}-ASELSTAALGRLSAELHELATLPRTETGSGSP-NH2 [[N-terminal(C16 diacid), des1, 30S, 31G]mimylin]	3 pM
{C20 diacid-γGlu-AEEA-AEEA}-ASELSTAALGRLSAELHELATLPRTETGSGSP-NH2 [[N-terminal(C20 diacid-gGlu-2xOEG), des1, 30S, 31G]mimylin]	35 pM
{C18 diacid}-ASELSTAALGRLSAELHELATLPRTETGSGSP-NH2 [[N-terminal(C18 diacid), des1, 30S, 31G]mimylin]	8 pM
{C18 diacid-γGlu}-ASELSTAALGRLSAELHELATLPRTETGSGSP-NH2 [[N-terminal(C18 diacid-gGlu), des1, 30S, 31G]mimylin]	11 pM
